Experimental data from the supplement of paper PMC10567573.

B1: TRIM43 (parent)
chain: FCDMDKSLLCLLCSNSQEHGAHKH
B2: KLHL20 (parent)
chain: YQDMIYAVGGRDDTTELSSAERYN

Variants of: B1
Test: protein stability index of a GFP-peptide fusion (GPS, HEK-293T) (PSI 1-6); higher = more stable
Conditions: c terminus: a fixed tail appended
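Also: lentivirally expressed fusions sorted by FACS into six bins by GFP to DsRed ratio, PSI derived from sequencing read proportions per bin multiplied by bin number.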

Variant	protein stability index
FCDMDKSLLCLLCSNSQEHGAHAH [K23A]	2.06
FCDMDKSLLCLLCSNSQEHGAHLH [K23L]	1.63
FCDMDKSLLCLLCSNSQEHGAHCH [K23C]	1.82
FCDMDKSLLCLLCSNSQEHGAHWH [K23W]	1.94
FCDMDKSLLCLLCSNSQEHGAHVH [K23V]	2.06
FCDMDKSLLCLLCSNSQEHGAHHH [K23H]	2.13
FCDMDKSLLCLLCSNSQEHGAHEH [K23E]	2.05
FCDMDKSLLCLLCSNSQEHGAHIH [K23I]	2.17
FCDMDKSLLCLLCSNSQEHGAHFH [K23F]	1.82
FCDMDKSLLCLLCSNSQEHGAHMH [K23M]	1.91
FCDMDKSLLCLLCSNSQEHGAHYH [K23Y]	1.43
FCDMDKSLLCLLCSNSQEHGAHQH [K23Q]	1.64
FCDMDKSLLCLLCSNSQEHGAHGH [K23G]	1.53
FCDMDKSLLCLLCSNSQEHGAHTH [K23T]	2.02
FCDMDKSLLCLLCSNSQEHGAHPH [K23P]	2.06
FCDMDKSLLCLLCSNSQEHGAHSH [K23S]	2.25
FCDMDKSLLCLLCSNSQEHGAHRH [K23R]	2.18
FCDMDKSLLCLLCSNSQEHGAHDH [K23D]	2.4
FCDMDKSLLCLLCSNSQEHGAHNH [K23N]	1.89
FCDMDKSLLCLLCSNSQEHMAHKH [G20M]	1.47
FCDMDKSLLCLLCSNSQEHYAHKH [G20Y]	2.28
FCDMDKSLLCLLCSNSQEHHAHKH [G20H]	1.92
FCDMDKSLLCLLCSNSQEHTAHKH [G20T]	2.12
FCDMDKSLLCLLCSNSQEHIAHKH [G20I]	1.66

Variant	protein stability index
FCDMDKSLLCLLCSNSQEHPAHKH [G20P]	2.27
FCDMDKSLLCLLCSNSQEHKAHKH [G20K]	1.93
FCDMDKSLLCLLCSNSQEHVAHKH [G20V]	2.35
FCDMDKSLLCLLCSNSQEHEAHKH [G20E]	2.36
FCDMDKSLLCLLCSNSQEHQAHKH [G20Q]	1.95
FCDMDKSLLCLLCSNSQEHNAHKH [G20N]	2.03
FCDMDKSLLCLLCSNSQEHFAHKH [G20F]	1.67
FCDMDKSLLCLLCSNSQEHWAHKH [G20W]	1.56
FCDMDKSLLCLLCSNSQEHAAHKH [G20A]	1.89
FCDMDKSLLCLLCSNSQEHRAHKH [G20R]	1.9
FCDMDKSLLCLLCSNSQEHCAHKH [G20C]	2.59
FCDMDKSLLCLLCSNSQEHSAHKH [G20S]	1.99
FCDMDKSLLCLLCSNSQEHDAHKH [G20D]	2.19
FCDMDKSLLCLLCSNSQEHLAHKH [G20L]	1.74
FCDMDKSLLCLLCSNSQEHGAMKH [H22M]	1.48
FCDMDKSLLCLLCSNSQEHGAVKH [H22V]	1.7
FCDMDKSLLCLLCSNSQEHGAEKH [H22E]	1.53
FCDMDKSLLCLLCSNSQEHGAKKH [H22K]	1.73
FCDMDKSLLCLLCSNSQEHGANKH [H22N]	1.75
FCDMDKSLLCLLCSNSQEHGAIKH [H22I]	2.17
FCDMDKSLLCLLCSNSQEHGAWKH [H22W]	1.45
FCDMDKSLLCLLCSNSQEHGAAKH [H22A]	1.77
FCDMDKSLLCLLCSNSQEHGACKH [H22C]	2.59
FCDMDKSLLCLLCSNSQEHGARKH [H22R]	1.84

Variant	protein stability index
FCDMDKSLLCLLCSNSQEHGAYKH [H22Y]	1.87
FCDMDKSLLCLLCSNSQEHGASKH [H22S]	1.73
FCDMDKSLLCLLCSNSQEHGALKH [H22L]	1.61
FCDMDKSLLCLLCSNSQEHGAGKH [H22G]	1.78
FCDMDKSLLCLLCSNSQEHGAPKH [H22P]	1.69
FCDMDKSLLCLLCSNSQEHGAFKH [H22F]	2.17
FCDMDKSLLCLLCSNSQEHGADKH [H22D]	2.11
FCDMDKSLLCLLCSNSQEHGATKH [H22T]	1.79
FCDMDKSLLCLLCSNSQEHGAQKH [H22Q]	1.91
FCDMDKSLLCLLCSNYQEHGAHKH [S16Y]	1.79
FCDMDKSLLCLLCSNWQEHGAHKH [S16W]	1.75
FCDMDKSLLCLLCSNMQEHGAHKH [S16M]	2.3
FCDMDKSLLCLLCSNHQEHGAHKH [S16H]	2
FCDMDKSLLCLLCSNRQEHGAHKH [S16R]	2.12
FCDMDKSLLCLLCSNVQEHGAHKH [S16V]	2.23
FCDMDKSLLCLLCSNQQEHGAHKH [S16Q]	2.13
FCDMDKSLLCLLCSNLQEHGAHKH [S16L]	2.15
FCDMDKSLLCLLCSNNQEHGAHKH [S16N]	2.06
FCDMDKSLLCLLCSNIQEHGAHKH [S16I]	1.57
FCDMDKSLLCLLCSNKQEHGAHKH [S16K]	2.04
FCDMDKSLLCLLCSNTQEHGAHKH [S16T]	2.07
FCDMDKSLLCLLCSNPQEHGAHKH [S16P]	2.65
FCDMDKSLLCLLCSNSQERGAHKH [H19R]	2.03
FCDMDKSLLCLLCSNSQEGGAHKH [H19G]	2.18

Variant	protein stability index
FCDMDKSLLCLLCSNSQENGAHKH [H19N]	1.75
FCDMDKSLLCLLCSNSQECGAHKH [H19C]	2.03
FCDMDKSLLCLLCSNSQEKGAHKH [H19K]	2.11
FCDMDKSLLCLLCSNSQEDGAHKH [H19D]	2.38
FCDMDKSLLCLLCSNSQEPGAHKH [H19P]	2.05
FCDMDKSLLCLLCSNSQEYGAHKH [H19Y]	1.91
FCDMDKSLLCLLCSNSQESGAHKH [H19S]	2.01
FCDMDKSLLCLLCSNSQEMGAHKH [H19M]	2.03
FCDMDKSLLCLLCSNSQEFGAHKH [H19F]	1.67
FCDMDKSLLCLLCSNSQEQGAHKH [H19Q]	1.41
FCDMDKSLLCLLCSNSQELGAHKH [H19L]	1.42
FCDMDKSLLCLLCSNSQEEGAHKH [H19E]	1.98
FCDMDKSLLCLLCSNSQEIGAHKH [H19I]	1.87
FCDMDKSLLCLLCSNSQEVGAHKH [H19V]	1.59
FCDMDKSLLCLLCSNSQEAGAHKH [H19A]	1.91
FCDMDKSLLCLLCSNSQETGAHKH [H19T]	1.83
FCDMDKSLLCLLCSNSQEWGAHKH [H19W]	1.51
FCDMDKSLLCLLCSNSQPHGAHKH [E18P]	1.83
FCDMDKSLLCLLCSNSQIHGAHKH [E18I]	1.4
FCDMDKSLLCLLCSNSQNHGAHKH [E18N]	1.87
FCDMDKSLLCLLCSNSQSHGAHKH [E18S]	1.63
FCDMDKSLLCLLCSNSQWHGAHKH [E18W]	1.98
FCDMDKSLLCLLCSNSQAHGAHKH [E18A]	2.12
FCDMDKSLLCLLCSNSQLHGAHKH [E18L]	1.7

Variant	protein stability index
FCDMDKSLLCLLCSNSQRHGAHKH [E18R]	1.86
FCDMDKSLLCLLCSNSQTHGAHKH [E18T]	1.68
FCDMDKSLLCLLCSNSQFHGAHKH [E18F]	1.75
FCDMDKSLLCLLCSNSQKHGAHKH [E18K]	1.86
FCDMDKSLLCLLCSNSQDHGAHKH [E18D]	2.11
FCDMDKSLLCLLCSNSQCHGAHKH [E18C]	2.3
FCDMDKSLLCLLCSNSQGHGAHKH [E18G]	1.78
FCDMDKSLLCLLCSNSQHHGAHKH [E18H]	1.81
FCDMDKSLLCLLCSNSQMHGAHKH [E18M]	1.83
FCDMDKSLLCLLCSNSQQHGAHKH [E18Q]	1.93
FCDMDKSLLCLLCSNSQVHGAHKH [E18V]	2.28
FCDMDKSLLCLLCSNSQYHGAHKH [E18Y]	1.71
FCDMDKSLLCLLCSNSSEHGAHKH [Q17S]	1.55
FCDMDKSLLCLLCSNSDEHGAHKH [Q17D]	1.78
FCDMDKSLLCLLCSNSLEHGAHKH [Q17L]	1.63
FCDMDKSLLCLLCSNSEEHGAHKH [Q17E]	2.1
FCDMDKSLLCLLCSNSYEHGAHKH [Q17Y]	2.19
FCDMDKSLLCLLCSNSPEHGAHKH [Q17P]	1.7
FCDMDKSLLCLLCSNSKEHGAHKH [Q17K]	2.13
FCDMDKSLLCLLCSNSVEHGAHKH [Q17V]	1.67
FCDMDKSLLCLLCSNSWEHGAHKH [Q17W]	1.74
FCDMDKSLLCLLCSNSFEHGAHKH [Q17F]	2.05
FCDMDKSLLCLLCSNSAEHGAHKH [Q17A]	1.85
FCDMDKSLLCLLCSNSMEHGAHKH [Q17M]	1.58

Variant	protein stability index
FCDMDKSLLCLLCSNSIEHGAHKH [Q17I]	1.78
FCDMDKSLLCLLCSNSGEHGAHKH [Q17G]	1.84
FCDMDKSLLCLLCSNSREHGAHKH [Q17R]	1.6
FCDMDKSLLCLLCSNSCEHGAHKH [Q17C]	2.22
FCDMDKSLLCLLCSNSNEHGAHKH [Q17N]	1.51
FCDMDKSLLCLLCSNSHEHGAHKH [Q17H]	1.76
FCDMDKSLLCLLCSNSTEHGAHKH [Q17T]	1.61
FCDMDKSLLCLLCSNSQEHGTHKH [A21T]	2.07
FCDMDKSLLCLLCSNSQEHGKHKH [A21K]	1.98
FCDMDKSLLCLLCSNSQEHGDHKH [A21D]	2.08
FCDMDKSLLCLLCSNSQEHGGHKH [A21G]	2.26
FCDMDKSLLCLLCSNSQEHGFHKH [A21F]	2.1
FCDMDKSLLCLLCSNSQEHGHHKH [A21H]	1.98
FCDMDKSLLCLLCSNSQEHGNHKH [A21N]	1.84
FCDMDKSLLCLLCSNSQEHGRHKH [A21R]	2.16
FCDMDKSLLCLLCSNSQEHGCHKH [A21C]	2.38
FCDMDKSLLCLLCSNSQEHGYHKH [A21Y]	1.48
FCDMDKSLLCLLCSNSQEHGEHKH [A21E]	1.83
FCDMDKSLLCLLCSNSQEHGWHKH [A21W]	1.54
FCDMDKSLLCLLCSNSQEHGSHKH [A21S]	2.02
FCDMDKSLLCLLCSNSQEHGIHKH [A21I]	1.47
FCDMDKSLLCLLCSNSQEHGMHKH [A21M]	2.33
FCDMDKSLLCLLCSNSQEHGPHKH [A21P]	2.22
FCDMDKSLLCLLCSNSQEHGVHKH [A21V]	1.85

Variant	protein stability index
FCDMDKSLLCLLCSNSQEHGQHKH [A21Q]	2.23
FCDMDKSLLCLLCSNSQEHGLHKH [A21L]	1.97
FCDMDKSLLCLLCSNSQEHGAHKL [H24L]	1.53
FCDMDKSLLCLLCSNSQEHGAHKF [H24F]	1.43
FCDMDKSLLCLLCSNSQEHGAHKQ [H24Q]	2.22
FCDMDKSLLCLLCSNSQEHGAHKI [H24I]	1.7
FCDMDKSLLCLLCSNSQEHGAHKP [H24P]	1.69
FCDMDKSLLCLLCSNSQEHGAHKY [H24Y]	1.36
FCDMDKSLLCLLCSNSQEHGAHKD [H24D]	2.18
FCDMDKSLLCLLCSNSQEHGAHKS [H24S]	1.58
FCDMDKSLLCLLCSNSQEHGAHKV [H24V]	2.04
FCDMDKSLLCLLCSNSQEHGAHKA [H24A]	1.72
FCDMDKSLLCLLCSNSQEHGAHKN [H24N]	2.26
FCDMDKSLLCLLCSNSQEHGAHKM [H24M]	1.48
FCDMDKSLLCLLCSNSQEHGAHKG [H24G]	1.77
FCDMDKSLLCLLCSNSQEHGAHKE [H24E]	1.65
FCDMDKSLLCLLCSNSQEHGAHKC [H24C]	2.4
FCDMDKSLLCLLCSNSQEHGAHKK [H24K]	1.89
FCDMDKSLLCLLCSNSQEHGAHKT [H24T]	1.66
FCDMDKSLLCLLCSNSQEHGAHKW [H24W]	1.84
FCDMDKSLLCLLCSNSQEHGAHKR [H24R]	1.86

Variants of: B2
Test: as above
Conditions: c terminus: a fixed tail appended

Variant	protein stability index
PQDMIYAVGGRDDTTELSSAERYN [Y1P]	4.57
FQDMIYAVGGRDDTTELSSAERYN [Y1F]	1.89
TQDMIYAVGGRDDTTELSSAERYN [Y1T]	4.58
HQDMIYAVGGRDDTTELSSAERYN [Y1H]	4.5
EQDMIYAVGGRDDTTELSSAERYN [Y1E]	5.08
VQDMIYAVGGRDDTTELSSAERYN [Y1V]	4.5
LQDMIYAVGGRDDTTELSSAERYN [Y1L]	4.26
IQDMIYAVGGRDDTTELSSAERYN [Y1I]	4.05
KQDMIYAVGGRDDTTELSSAERYN [Y1K]	4.39
SQDMIYAVGGRDDTTELSSAERYN [Y1S]	4.89
CQDMIYAVGGRDDTTELSSAERYN [Y1C]	4.21
MQDMIYAVGGRDDTTELSSAERYN [Y1M]	4.1
NQDMIYAVGGRDDTTELSSAERYN [Y1N]	4.96
RQDMIYAVGGRDDTTELSSAERYN [Y1R]	4.89
QQDMIYAVGGRDDTTELSSAERYN [Y1Q]	4.75
AQDMIYAVGGRDDTTELSSAERYN [Y1A]	4.78
DQDMIYAVGGRDDTTELSSAERYN [Y1D]	5.33
WQDMIYAVGGRDDTTELSSAERYN [Y1W]	2.85
GQDMIYAVGGRDDTTELSSAERYN [Y1G]	4.66
YCDMIYAVGGRDDTTELSSAERYN [Q2C]	2.02
YEDMIYAVGGRDDTTELSSAERYN [Q2E]	5.02
YADMIYAVGGRDDTTELSSAERYN [Q2A]	2.3
YDDMIYAVGGRDDTTELSSAERYN [Q2D]	4.86
